From publication doi:10.1101/2023.07.25.550451 (bioRxiv, 2023)
Read-outs that look alike come from different tables or passages of the source. * marks the point of attachment. Biotin = O=C1N[C@H]2[C@H](CS[C@H]2CCCCC(=O)*)N1

B1: GST-FAM104A isoform 1 (natural protein)
chain: not shown
B2: GST-FAM104A isoform 2 (natural protein)
chain: not shown
B3: biotinylated peptide spanning the conserved C-terminal alpha-helix and flanking residues of FAM104A (C180-G203 of isoform 1) (peptide)
peptide: Biotin-CQGLYFHINQTLREAHFHSLQHRG-OH
SMILES: CC[C@H](C)[C@H](NC(=O)[C@H](Cc1c[nH]cn1)NC(=O)[C@H](Cc1ccccc1)NC(=O)[C@H](Cc1ccc(O)cc1)NC(=O)[C@H](CC(C)C)NC(=O)CNC(=O)[C@H](CCC(N)=O)NC(=O)[C@H](CS)NC(=O)CCCC[C@@H]1SC[C@@H]2NC(=O)N[C@@H]21)C(=O)N[C@@H](CC(N)=O)C(=O)N[C@@H](CCC(N)=O)C(=O)N[C@H](C(=O)N[C@@H](CC(C)C)C(=O)N[C@@H](CCCNC(=N)N)C(=O)N[C@@H](CCC(=O)O)C(=O)N[C@@H](C)C(=O)N[C@@H](Cc1c[nH]cn1)C(=O)N[C@@H](Cc1ccccc1)C(=O)N[C@@H](Cc1c[nH]cn1)C(=O)N[C@@H](CO)C(=O)N[C@@H](CC(C)C)C(=O)N[C@@H](CCC(N)=O)C(=O)N[C@@H](Cc1c[nH]cn1)C(=O)N[C@@H](CCCNC(=N)N)C(=O)NCC(=O)O)[C@@H](C)O

Assays:
[1] = molecular target: T1, p97, wild-type, full-length (recombinant) (human, UniProt P55072 1-806); assay: pull-down
[2] = molecular target: T1, p97, wild-type, full-length …; assay: pull-down; remark: listed apart in the source

T1 sequence (P55072 whole entry): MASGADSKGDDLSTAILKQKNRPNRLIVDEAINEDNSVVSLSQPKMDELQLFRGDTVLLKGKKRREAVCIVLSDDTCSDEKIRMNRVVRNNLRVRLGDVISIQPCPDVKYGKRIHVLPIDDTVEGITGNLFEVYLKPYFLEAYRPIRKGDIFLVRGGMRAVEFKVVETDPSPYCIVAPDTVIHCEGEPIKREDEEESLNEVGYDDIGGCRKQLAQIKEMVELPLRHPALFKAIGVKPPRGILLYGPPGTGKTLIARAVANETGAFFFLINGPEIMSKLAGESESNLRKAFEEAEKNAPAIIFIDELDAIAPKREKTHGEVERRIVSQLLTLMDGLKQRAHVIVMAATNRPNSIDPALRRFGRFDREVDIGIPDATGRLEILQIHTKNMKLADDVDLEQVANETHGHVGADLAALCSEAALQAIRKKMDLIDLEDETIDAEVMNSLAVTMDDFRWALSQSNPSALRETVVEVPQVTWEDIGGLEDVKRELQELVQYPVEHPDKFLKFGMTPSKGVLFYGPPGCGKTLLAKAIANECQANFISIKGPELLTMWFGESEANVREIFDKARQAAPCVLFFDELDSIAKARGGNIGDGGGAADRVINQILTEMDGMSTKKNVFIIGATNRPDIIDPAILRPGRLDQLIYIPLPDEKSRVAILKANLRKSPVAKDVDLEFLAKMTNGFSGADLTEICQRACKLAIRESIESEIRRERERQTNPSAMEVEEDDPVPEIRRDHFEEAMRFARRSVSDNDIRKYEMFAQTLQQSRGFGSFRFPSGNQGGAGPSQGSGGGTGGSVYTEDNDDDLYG

Binder	binding result [1]	binding result [2]
B1	binds	–
B2	binds	–
B3	–	binds
